Values quoted from earlier work, collected in article PMC12060137.
pKd: −log10 of the molar value.

Molecular target: TfR1 (Homo sapiens) (UniProt P02786)
Sequence (P02786 89-760): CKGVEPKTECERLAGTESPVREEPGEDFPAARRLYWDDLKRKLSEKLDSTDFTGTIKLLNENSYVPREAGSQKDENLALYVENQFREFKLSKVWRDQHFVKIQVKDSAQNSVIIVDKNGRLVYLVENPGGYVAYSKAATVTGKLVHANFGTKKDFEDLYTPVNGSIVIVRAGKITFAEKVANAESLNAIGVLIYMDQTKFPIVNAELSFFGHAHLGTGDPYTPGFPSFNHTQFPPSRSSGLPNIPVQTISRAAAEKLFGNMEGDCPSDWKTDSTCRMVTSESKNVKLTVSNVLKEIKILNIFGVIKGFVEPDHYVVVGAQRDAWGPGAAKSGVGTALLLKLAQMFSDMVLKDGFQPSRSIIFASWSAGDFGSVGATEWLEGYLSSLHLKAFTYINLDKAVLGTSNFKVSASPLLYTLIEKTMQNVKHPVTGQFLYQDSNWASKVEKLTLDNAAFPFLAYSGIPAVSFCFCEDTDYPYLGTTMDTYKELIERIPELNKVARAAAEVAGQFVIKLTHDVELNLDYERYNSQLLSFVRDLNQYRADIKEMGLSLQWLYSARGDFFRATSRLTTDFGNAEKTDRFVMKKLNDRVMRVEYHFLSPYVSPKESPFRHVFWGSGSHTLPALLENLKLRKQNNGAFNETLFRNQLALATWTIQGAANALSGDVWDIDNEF

HFt-W4 ferritin nanoparticle, sequence (P02794 2-183): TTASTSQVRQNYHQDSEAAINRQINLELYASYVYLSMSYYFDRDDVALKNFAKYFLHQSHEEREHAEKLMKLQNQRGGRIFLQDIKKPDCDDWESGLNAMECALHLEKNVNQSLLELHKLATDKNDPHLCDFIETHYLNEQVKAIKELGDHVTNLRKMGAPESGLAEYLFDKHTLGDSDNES

Substance: HFt-W4 ferritin nanoparticle (from UniProt P02794)
- pKd: 7.60
